Experimental data as given in the supplement of paper PMC10201428.
± gives the standard deviation of the averaged measurements.

How the values were obtained:
[1] = system: VchCAST RNA-guided transposition machinery (E. coli BL21(DE3) host, lacZ target); assay: relative integration efficiency (T-RL orientation) vs wild-type transposon end (log2 (normalized fold change)); transposon end mutated: right end (5 bp flank + 75 bp right end); higher = more efficient transposition
Outline: (§1)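 Co-transformation of E. coli BL21(DE3) combined a pUC57 mini-transposon donor, holding barcoded pools of 1549 left-end or 1849 right-end variants, with a T7-driven plasmid encoding a CRISPR array, tniQ-cas8-cas7-cas6 and tnsA-tnsB-tnsC. After plating with 0.1 mM IPTG at 37°C for 18 h, input plasmids and genomic integration junctions were PCR-amplified and Illumina-sequenced across two biological output replicates, with four reference barcodes. Relative integration efficiency is the normalised, log-transformed output/input barcode fold change.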

[2] = system: VchCAST RNA-guided transposition machinery (E. coli BL21(DE3) host, lacZ target); assay: relative integration efficiency (T-LR orientation) vs wild-type transposon end (log2 (normalized fold change)); transposon end mutated: right end (5 bp flank + 75 bp right end); higher = more efficient transposition
Outline: as §1

Sequence | relative integration efficiency (log2) [1] | relative integration efficiency (log2) [2]
ACATTTGTTGATACCACCATCAAATGATAATTCCACCCCTAAATTGATAATTATCACACCCAATTTAACTATAACGCTCTGATCATAGTCAGACCAACATTGCTACGACCCGTATTCGCACCGACAC | -5.24 ± 0.34 | -2.31 ± 0.042
ACATTTGTTGATACCACCATCAAATGATAATTCCACCCCTACATTGATAATTATCACACCCAATTTAACTATAACGCTCTGATCATAGTCAGACCAACATTGCTACGACCCGTATTCGCACCGACAC | -5.99 ± 0.51 | -2.15 ± 0.19
ACATTTGTTGATACCACCATCAAATGGTAATTACACCCATAAATTGATAATTATCACACCCAATTTAACTATAACGCTCTGATCATAGTCAGACCAACATTGCTACGACCCGTATTCGCACCGACAC | -2.79 ± 0.21 | 0.203 ± 0.17
ACATTTGTTGATACCACCATCAAATGGTAATTACACCCATACATTGATAATTATCACACCCAATTTAACTATAACGCTCTGATCATAGTCAGACCAACATTGCTACGACCCGTATTCGCACCGACAC | -5.6 ± 0.15 | -2.98 ± 0.51
ACATTTGTTGATACCACCATCAAATGGTAATTACACCCCTAAATTGATAATTATCACACCCAATTTAACTATAACGCTCTGATCATAGTCAGACCAACATTGCTACGACCCGTATTCGCACCGACAC | -6.57 ± 0.25 | -3.8 ± 0.81
ACATTTGTTGATACCACCATCAAATGGTAATTACACCCCTACATTGATAATTATCACACCCAATTTAACTATAACGCTCTGATCATAGTCAGACCAACATTGCTACGACCCGTATTCGCACCGACAC | -3.15 ± 0.8 | 0.00776 ± 0.29
ACATTTGTTGATACCACCATCAAATGGTAATTCCACCCATAAATTGATAATTATCACACCCAATTTAACTATAACGCTCTGATCATAGTCAGACCAACATTGCTACGACCCGTATTCGCACCGACAC | -3.19 ± 0.23 | -0.205 ± 0.08
ACATTTGTTGATACCACCATCAAATGGTAATTCCACCCATACATTGATAATTATCACACCCAATTTAACTATAACGCTCTGATCATAGTCAGACCAACATTGCTACGACCCGTATTCGCACCGACAC | -6.61 ± 0.18 | -4.54 ± 0.41
ACATTTGTTGATACCACCATCAAATGGTAATTCCACCCCTAAATTGATAATTATCACACCCAATTTAACTATAACGCTCTGATCATAGTCAGACCAACATTGCTACGACCCGTATTCGCACCGACAC | -6.33 ± 0.84 | -4 ± 0.18
ACATTTGTTGATACCACCATCAAATGGTAATTCCACCCCTACATTGATAATTATCACACCCAATTTAACTATAACGCTCTGATCATAGTCAGACCAACATTGCTACGACCCGTATTCGCACCGACAC | -6.99 ± 0.2 | -3.726 ± 0.034
ACATTTGTTGATACCCAAATAAAATGATAATTACACCCATAAATTGATAATTATCACACCCATAAATTGATATTGCCTCTGATCATAGTCAGACCAACATTGCTACGACCCGTATTCGCACCGACAC | -2.59 ± 0.17 | -2.7 ± 0.25
ACATTTGTTGATACCCCCATAAAATGATAATTACACCCATAAATTGATAATTATCACACCCATAAATTGATATTGCCTCTGATCATAGTCAGACCAACATTGCTACGACCCGTATTCGCACCGACAC | -0.828 ± 0.081 | -0.879 ± 0.24
ACATTTGTTGATACTACCATAAAATGATAATTACTCCCATAAATTGATAATTATCACTCCCATAAATTGATATTGCCTCTGATCATAGTCAGACCAACATTGCTACGACCCGTATTCGCACCGACAC | -0.805 ± 0.022 | -0.0376 ± 0.31
ACATTTGTTGATACTACCATATAATGATAATAACACCCATAAAATGATAATTATCACACCCAATTTAACTATAACGCTCTGATCATAGTCAGACCAACATTGCTACGACCCGTATTCGCACCGACAC | -1.45 ± 0.32 | 1.9 ± 0.11
ACATTTGTTGATACTACCATTTAATGATAATAACACCCATAAAATGATAATTATCACACCCAATTTAACTATAACGCTCTGATCATAGTCAGACCAACATTGCTACGACCCGTATTCGCACCGACAC | -1.01 ± 0.18 | 1.8 ± 0.17
ACATTTGTTGATACTTCCATAAAATGATAATTACACCCATAAATTGATAATTATCACACCCATAAATTGATATTGCCTCTGATCATAGTCAGACCAACATTGCTACGACCCGTATTCGCACCGACAC | -0.637 ± 0.052 | -0.525 ± 0.042
ACATTTGTTGATACTTGGATAAAATGATAATTACACCCATAAATTGATAATTATCACACCCATAAATTGATATTGCCTCTGATCATAGTCAGACCAACATTGCTACGACCCGTATTCGCACCGACAC | -0.966 ± 0.23 | -1.07 ± 0.2
ACATTTGTTGATAGAACCATAAAATGATAATTAGACCCATAAATTGATAATTATCAGACCCATAAATTGATATTGCCTCTGATCATAGTCAGACCAACATTGCTACGACCCGTATTCGCACCGACAC | -1.64 ± 0.2 | -0.628 ± 0.11

Sequence | relative integration efficiency (log2) [1] | relative integration efficiency (log2) [2]
ACATTTGTTGATAGAACCATATAATGATAATAACACCCATAAAATGATAATTATCACACCCAATTTAACTATAACGCTCTGATCATAGTCAGACCAACATTGCTACGACCCGTATTCGCACCGACAC | -1.72 ± 0.33 | 1.28 ± 0.069
ACATTTGTTGATAGAACCATTTAATGATAATAACACCCATAAAATGATAATTATCACACCCAATTTAACTATAACGCTCTGATCATAGTCAGACCAACATTGCTACGACCCGTATTCGCACCGACAC | -2.12 ± 0.42 | 0.598 ± 0.17
ACATTTGTTGATAGTACCATAAAATGATAATTACACCCATAAATTGATAATTATCACACCCATAAATTGATATTGCCTCTGATCATAGTCAGACCAACATTGCTACGACCCGTATTCGCACCGACAC | -0.367 ± 0.064 | -1.23 ± 0.17
ACATTTGTTGATAGTTGCATAAAATGATAATTACACCCATAAATTGATAATTATCACACCCATAAATTGATATTGCCTCTGATCATAGTCAGACCAACATTGCTACGACCCGTATTCGCACCGACAC | -1.07 ± 0.13 | -1.37 ± 0.15
ACATTTGTTGATAGTTGGTATTTTACTATTAATCACCCATAAATTGATAATTATCAGTGGGTATTTAACTATAACGCTCTGATCATAGTCAGACCAACATTGCTACGACCCGTATTCGCACCGACAC | -5.71 ± 0.79 | -4.49 ± 1.4
ACATTTGTTGATAGTTGGTATTTTACTATTAATGTGGGTATTTAACTATTAATTCACACCCATAAATTGATATTGCCTCTGATCATAGTCAGACCAACATTGCTACGACCCGTATTCGCACCGACAC | -6.222 ± 0.043 | -3.485 ± 0.034
ACATTTGTTGATAGTTGGTATTTTACTATTAATGTGGGTATTTAACTATTAATTCAGTGGGTATTTAACTATAACGCTCTGATCATAGTCAGACCAACATTGCTACGACCCGTATTCGCACCGACAC | -6.63 ± 0.31 | < -10
ACATTTGTTGATATAATTATCATTTTATGGTTGCAACCATAAAATGATAATTATCACAACCATAAAATGATAATTACTCTGATCATAGTCAGACCAACATTGCTACGACCCGTATTCGCACCGACAC | -3.54 ± 0.15 | -4.32 ± 2.7
ACATTTGTTGATATAATTATCATTTTATGGTTGCAACCATAAAATGATAATTATGATAATTATCATTTTATGGTTGCTCTGATCATAGTCAGACCAACATTGCTACGACCCGTATTCGCACCGACAC | -2.97 ± 0.69 | -4.33 ± 0.53
ACATTTGTTGATATAATTATCATTTTATGGTTGTAATTATCATTTTATGGTTGTCATAATTATCATTTTATGGTTGCTCTGATCATAGTCAGACCAACATTGCTACGACCCGTATTCGCACCGACAC | -6.26 ± 0.22 | -6.39 ± 2.5
ACATTTGTTGATATCAACCATAAAATGATAATTACACCCATAAATTGATAATTATCACACCCATAAATTGATATTGCCTCTGATCATAGTCAGACCAACATTGCTACGACCCGTATTCGCACCGACA | -0.0259 ± 0.16 | -1.376 ± 0.0096
ACATTTGTTGATATGCAACCATAAAATGATAATTACACCCATAAATTGATAATTATCACACCCATAAATTGATATTGCCTCTGATCATAGTCAGACCAACATTGCTACGACCCGTATTCGCACCGAC | -6.537 ± 0.019 | -7.72 ± 1.2
ACATTTGTTGATATGTTCAACCATAAAATGATAATTACACCCATAAATTGATAATTATCACACCCATAAATTGATATTGCCTCTGATCATAGTCAGACCAACATTGCTACGACCCGTATTCGCACCG | -6.34 ± 0.1 | -7.23 ± 1.7
ACATTTGTTGATATGTTGACAACCATAAAATGATAATTACACCCATAAATTGATAATTATCACACCCATAAATTGATATTGCCTCTGATCATAGTCAGACCAACATTGCTACGACCCGTATTCGCAC | -6.69 ± 0.15 | -5.78 ± 1.9
ACATTTGTTGATATGTTGATACAACCATAAAATGATAATTACACCCATAAATTGATAATTATCACACCCATAAATTGATATTGCCTCTGATCATAGTCAGACCAACATTGCTACGACCCGTATTCGC | -0.0755 ± 0.058 | 0.26 ± 0.15
ACATTTGTTGATATGTTGATCAACCATAAAATGATAATTACACCCATAAATTGATAATTATCACACCCATAAATTGATATTGCCTCTGATCATAGTCAGACCAACATTGCTACGACCCGTATTCGCA | -7.04 ± 0.42 | -3.71 ± 0.28
ACATTTGTTGATCAAACCATAAAATGATAATTACACCCATAAATTGATAATTATCACACCCATAAATTGATATTGCCTCTGATCATAGTCAGACCAACATTGCTACGACCCGTATTCGCACCGACAC | -0.137 ± 0.021 | -0.874 ± 0.45
